B1: TPR t1 (parent)
chain: GACCAAUCUGCCCUCAGAGCUCGAGAACAUCUUCGGAUGCAGAGGAGGCAGGCUUCGGUGGCGCGAUAGCGCCAACGUCCUCAACCUCCAAUGCAUCCCACCACAUGAUGAUGCCUGAAGAGCCUUGGUUUUUUG

Variants of: B1
Test: polymerase ribozyme fitness, log enrichment relative to wild type (log ratio); higher = more active; in vitro selection for triplet polymerase activity
How it was run: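 Mutant libraries of both subunits of a heterodimeric triplet polymerase ribozyme were PCR-built, transcribed, and selected once in triplicate, with frozen incubation at −7 °C and capture of gel-excised extended constructs on streptavidin beads before RT-PCR. Illumina sequencing of input and output libraries was filtered to genotypes with ≥10 input reads and ≥1 read per output. Fitness is the logarithm of genotype enrichment over wild-type enrichment, using inverse-variance-weighted replicate averages. The logarithm is base 2.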

Variant | polymerase ribozyme fitness (log ratio)
GACCAAUCUGCCCUCUGAGCUCGAGAACAUCUUCGGAUGCAGAGGAGGCAGGCUUCGGUGGCGCGAUAGCGCCAACGUCCUCAACCUCCAAUGCCUCCCACCACAUGAUGAUGCCUGAAGAGCCUUGGUUUUUUG | -2.59
GACCAAUCUGCCCUCGGAGCUCGAGAACAUCUUCGGAUACAGAGGAGGCAGGCUUCGGUGGCGCGAUAGCGCCAACGUCCUCAACCUCCAAUGCAUCCCACCACAUGAUGAUGCAUGAAGAGCCUUGGUUUUUUG | -2.22
GACCAAUCUGCCCUCGGAGCUCGAGAACAUCUUCGGAUGCAGAGGAGGCAGGCUUCGGUGACGCGAUAGCGCCCACGGCCUCAACCUCCAAUGCAUCCCACCACAUGAUGAAGCCUGAAGAGCCUUGGUUUUUUG | -4.17
GACCAAUCUGCCCUCGGAGCUCGAGAACAUCUUCGGAUGCAGAGGAGGCAGGCUUCGGUGGCGCGAUAGCGCCAACGUCCUCAACCUCCAAUGCAUCCCACCACAUGAUGAUGCCUGAAGAGCCUUGGGUUUUUG | -3.64
GACCAAUCUGCCCUCUGAGCUCGAGAACAUCUUCGGAUGCAGAGGAGGCAGGCUUCGGUGGCGCGAUAGCGCCAACGUCCUCUACCUCCAAUGCAUCCCACCACAUGAUGAGGCAUGAAGAGCCUUGGUUUUUUG | -4.6
GACCAAUCUGCCCUCGGAGCUCGAGAACAUCUUCGGAUGCAGAGGAGGCAGGCUUCGGUGGCGCGAUAGCGCCAACGUCCUCAACCUCCAAUGCAUCUCACCACAUGAUGAUGCCUGAAGAGCCUUGGUUUUUUG | -3.02
GACCAAUCUGCCCUCUGAGCUCGAGAACAUCUUCGGAUGCAGAGGAGGCAGGCUUCGGUGGCGCGAUAGCGCCAACGUCCUCCACCUCCAAUGCAUCCCACCACAUGAUGAUGCCUGAAUAGACUUCGUUAUUUG | -1.95
GACCAAUCUGCCCUCUGAGCUCGAGAACAUCUUCGGAUGCAGAGGAGGCAGGCUUCGGUGGCGCGAUAGCGCCAGCGUCCUCUACCUCCAAUGCAUCCCUCCACAUGAUAAUGCCUGAAGAGCCUUGGUUUUUUG | -4.47
GACCAAUCUGCCCUCUGCGCUCGAGAACAUCUUCGGAUGCAGAGGAGGCAGACUUCGGUGGCGCGAUAGCGCCAACGUCCUCAACCUCCAAUGCACCCCACCACAUGAUGAAGCCUGAAGAGCCUUGGUUUUUUG | -4.51
GACCAAUCUGCCCUCGGAGCUCGAGAACAUCUUCGGAUGCAGAGGAGGCAGGCUUCGGUGACGCGAUAGCGCCAACGUCCUCAACCUCCAAUGCAUCCCACCACAUGAUGAUGCCUGAAGAGCCUUGGUUUUUUG | -1.13
GACCAAUCUGCCCUCUGAGCUCGAGAACAUCUUCGGAUGCAGAGGAGGCGGGCUUCGGUUGCGCGAUAGCGCCAACGUCCUCAACCUCCAAUGCAUGCCACCACAUGAUGAUGCCUGAAGAGCCAUGGUUUUUUG | -7.95
GACCAAUCUGCCCUCGGAGCUCGAGAACAUCUUCGGAUGCAGAGGAGGCAGGCUUCGGUGGCGCGAUAGCGCCAACGUCCUCAACCUCCAAUGCAUGCCACCACAUGAUGAUGCCCGAAGAGCCUUGGUUUUUUG | -2.75
GACCAAUCUGCCCUCGGAGCUCGAGAACAUCUUCGUAUGCAGAGGAGGCAGGCUUCGGUGGCGCGAUACCGCCAACGUCCUCAACCUCCAAUGCAUCCCACCACAUGAUGAUGCCUGAAGUGCCUUGGUUUUUUG | -1.25
GACCAAUCUGCCCUCGGAGCUCGAGAACAUCUUCGGAUGCAGAGGAGGCAGGCUUCGGUGGCGCGAUAGCGCCAACGUCCUCAACCUCCAAUACAUCCCACCACAUGAUGAUGCCUGAAGAGCCUUGGUUUUUUG | -2.61
GACCAAUCUGCCCUCGGAGCUCGAGAACAUCUUCGGAUGCAGAGGAGGCAGGCUUCGGUGGCGCGAUAGCGCCAACGUCCUCAACCUCCAAUGCAUCCCACCACAUGAUGAUGCCCGAAGAGCCUUGGUUUUUUG | 1.6
GACCAAUCUGCCCUCUGAGCUCGAGAACUUCUUCGAAUGCAGCUGAGGCAGGAUUCGGUGGCCCGAUAGCGCCAACGUCCUCAACCUCCAAUGCAUCCCACCACAUGAUGACGCCUGAAGAGCCUUGGUUUUUUG | -5.08
GACCAAUCUGCCCUCGGAGCUCGAGAACAUCUUCGGAUGCAGAGGAGGCAGGCUUCGGUGGCGCGAUAGCGCCAACAUCCUCAACCUCCAAUGCAUCCCACCACAUGAUGGUACCUGGAGAGCCUUGGUUUUUUG | -3.63
GACCAAUCUGCCCUCGGAGCUCGAGAACAUCUUCGGAUGCAGAGGAGCCAGGCUUCGGUAGCGCGAUAGCGCCAACGUCCUCAACCUCCAAUGCAUCCCACCACAUGAUGAUGCCUGAAGAGCCUUGGUUUUUUG | -1.87
GACCAAUCUGCCCUCGGAGCUCGAGAACAUCUUCGGAUGCAGAGGAGGCAGGCUUCGGUGGCUCGAUAGCGCCAACGUCCUCAACCUCCAAUGCAUCCCACCACAUGAUGAUGCCUGAAGAGCCUUGGUUUUUUG | -1.65
GACCAAUCUGCCCUCUGAGCUCGAGAACAUCUUCGGUUGCAGAGGAGGCAGGCUUCGGUGGCGCGAUAGCGCCAACGUCCUCAACCUCCAAUGCAUUCCACCACAUGAUGAUGCCUGAAGAGCCUUGGUUUUUUG | -5.8
GACCAAUCUGCCCUCGGAGCUCGAGAACAUCUUCGGAUGCAGAGGAGGCAGGCUUCCGUGGCGCGAUAGCGCCAACGUCCUCAACCUCCAAUGCAUCUCACCACAUGAUGAAGCCUGAAGAGCCUUGCUUUUUUG | -5.3

Variant | polymerase ribozyme fitness (log ratio)
GACCAAUCUGCCCUCUGAGCUCGAGAACAUCUUCGGCUGCAGAGGAGGCAGGCUUCGGUGGCGCGAUAGCGCGAACGUCCUCAACCUCCAAUGCAUCCCACCACAUGAUGACGCCUGAAGAGCCUUGGUUUUGUG | -1.75
GACCAAUCUGCCCUCGGAGCUCGAGAACAUCUUCGGAUACAGAGGAGGCAGGCUUCGGUGGCGCGAUAGCGCCAACGUCCUCAACCUCCAAUGCAUCCCACCACAUGAUGAUGUCUGAAGAGCCUUGGUUUUUUG | -4.17
GACCAAUCUGCCCUCGGAGCUCGAGAACAUCUUCGGAUGCAGAGAAGGCAGGCUUCGGUGGCGCGAUAGCGCCAACGUCGUCAACCUCCAAUGCAUCCCACCACAUGAUGAUGUCUGAAGAGCCUUGGUUUUUUG | -5.91
GACCAAUCUGCCCUCGGAGCUCGAGAACAUCUUCGGAUGCAGAGGAGGCAGGCUUCGGUAGCGCGAUAGCGCCAACGUCCUCAACCUCCAAUGCAUCCCACCACAUGAUGAUGCCUGAAGAGCCUUGGUUUUUUG | -1.26
GACCAAUCUGCCCUCGGAGCCCGAGAACAUCUUCGGAUGCAGAGGAGACAGGCUUCGGUGGCGCGAUAGCGCCAACGUCCUCAACCUCCAAUGCAUCCCCCCACAUGAUGAUGCCUGAAGAGACUUGGUUUUUUG | -4.34
GACCAAUCUGCCCUCUGAGCUCGAGAACAUCUUCGGUUGCAGAGGAGGCAGGCUUCGGUGGCGCGAUAGCGCCAACGUCCUCAACCUCCAAUGCAUCCCACCACAUGAUGAUGCCUGAAGAGCCUUGGUUUUUUG | -2.13
GACCAAUCUGCCCUCUGAGCUCGAGAACAUCUUCGGGUGCAGAGGAGGCAGGCUUCGGUGGCGCGAUAGCGCCAACGUCCUCAACCUCCAAUGCAUCCCACCACAUGAUGAUGCCUGAAGAGCCUUGGUUUUUUG | -2.1
GACCAAUCUGCCCUCGGAGCUCGAGAACAUCUUCGGAUGCAGAGGAGGCAGGCUACGGUAGCGCGAUAGCGCCAACGUCCUCAACCUCCAAUUCAUCCCACUACAUGAUGAUGCCUGAAGAGCCUUGGUGUUUUG | -3.39
GACCAAUCUGCCCUCUGAGCUCGAGAACAUCUUCGGAUGCGGAAGAGGCAGGCUUCGGUGGCGCGAUAGCGCCAACGUCCUCAACCUCCAAUGCAUCCCACCACAUGAUGAUGCCUCAAGAGCCUUGGUUUUUUG | -4.44
GACCAAUCUGCCCUCGGAGCUCGAGAACAUCUUCGGAUUCAGAGGAGGCAGGGUUCGGUGGCGCGAUAGCGCCAACGUCCUCAACCUCCAAUGCAUCCCACCACAUGAUGAUGCCUGAAGAGCCUUGGUUUUUUG | -2.41
GACCAAUCUGCCCUCUGAGCUCGAGUACAUCUUCGGAUGCAGAGGAGGCAGGCUUCGGUGGCGCGAUAGCGCCAACGUCCUCAACCUCCAAUGCAUCCCACCACAUGAUGAUGCCUGAAGAGCCUUGGUUUUUUG | -4.8
GACCAAUCUGCCCUCGGAGCUCGAGAACAUCUUCGGAUGCAGAGGAGGCAGGCUUCGGUGGCGCGAUAGCUCCAACGUCCUCAACCUCCAAUGCAUCCCACCACAUGAUGAUGCCUGAAGAGCCUUGGUUUUUUG | -0.398
GACCAAUCUGCCCUCUGAGCUCGAGAACAUCUUCGGAUGCAGAGGCGGCAGGCUUCGGUGGCGCGAUAGCGCCAACGUCCUCAACCUCCAAUGUAUCCCACCACAUGAUGAUGCCUGAACAGCCUUGGUUUUUUG | -0.971
GACCAAUCUGCCCUCGGAGCUCGAGAACAUCUUCGGAUGCAGAGGAGGCAGGCUUCGGUGGCGCGAUAGCGCCAACGUCCUCAACCUCCAAUGCAUCCCACCACAUGACGAUGCCUGAAGAGCCUUGGUUUUUUG | -5.19
GACCAAUCUGCCCUCUGAGCUCGAGGACAUCUUCGGAUGCAGAGGAGGCAGGCUUCGGUGGCGCGAUAGCGCCAACGUCCUCAACCUUCAAUGCAUCCCACCACAUGAUGAUGCCUGAAGAGCGUUGGUUUUUUG | -1.11
GACCAAUCUGCCCUCUGAGCUCGAGGACAUCUUCGGAUGCAGAGGAGGCAGGCUUUGGUGGCGCGAUAGCGCCAACGUCCUCAACCUUCAAUGCAUCCCACCACAUGAUGAUGCCUGAAGAGCGUUGGUUUUUUG | -1.25
GACCAAUCUGCCCUCGGAGCUCGAGAACAUCUUCGGAUGCAGAGGAGGCAGGCUUCGGUAGCGCGAUAGCGCCAACGUCCUCAACCUCCAAUGCAUCCCACCACAUGAUGAUGCCUGAACAGCCUUGGUUUUUUG | -0.306
GACCAAUCUGCCCUCUGAGCUCGAGAACAUCUUCGGAUGCAGAGGAGGCAGGCUUCGGUGGCGCGAUAGCGCCAACGUCCUCAUCCUCCAAUGCAUCCCUCCACAUGAUGAUGCCUGAAGAGCAUUGGGUUUUUG | -0.308
GACCAAUCUGCCCUCGGAGCUCGAGAACAUCUUCGGAUGCAGAGGAGGCACGCUUCGGUGGCGCGAUAGCGCCAACGUCCUCAACCUCCAAUGCAUCCCACCACAUGAUGAUGCCUGAAGAGCCUUGGUUUUUUG | -5.21
GACCAAUCUGCCCUCUGAGCUCGAGAACAUCUUCGGUUGCAGAGGAGGCAGGCUUGGGUGGCGCGAUAGCGCCAACGUCCUCAACCUCCAAUGCAUCCCACCACAUGAUGAUGCCUGAAGAGCCUUGGUUUUUUG | -3.71
GACCAAUCUGCCCUCGGAGCUCGAGAACAUCUUCGGAUGCACCGGAGGCAGGCUUCGGUGGCGCGAUAGCGCCAACGUCCUCAACCUCCAAUGCAUCCCACCACAUGAUGAUGCCUGAAGAGACUUGGUUUUUUG | -3.43
